Reference: publication PMC7857584

Columns and labels:
MLA10-cLUC (barley) = MLA10-cLUC (barley) (UniProt Q6WWJ4)

## AVRA10-nLUC (natural protein)
MLA10-cLUC (barley)
  LUC activity (proxy for cell viability) in barley protoplasts co-expressing Mla10 and AVRa10, against Mla10 with AVRa22 (% lower LUC activity): 50
MLA22LRR10-cLUC (barley)
  reduction of relative LUC activity (proxy for cell death) in barley protoplasts co-expressing AVRa10 and Mla22Lrr10, against the empty vector (% reduction of relative LUC activity): 40
